Blank lines part the entries; values can stand above or below the molecule they belong to.
Assays:
[1] = molecular target: Hsp90 (of the ITC in Supplementary Figure 1); assay: ITC
human Skp1 (human) = human Skp1 (human) (UniProt P63208); assay: ITC
His6-tagged human Hsp90β = His6-tagged human Hsp90β (human, UniProt P08238 1-724); assay: pull-down
Sequence of His6-tagged human Hsp90β (P08238 whole entry): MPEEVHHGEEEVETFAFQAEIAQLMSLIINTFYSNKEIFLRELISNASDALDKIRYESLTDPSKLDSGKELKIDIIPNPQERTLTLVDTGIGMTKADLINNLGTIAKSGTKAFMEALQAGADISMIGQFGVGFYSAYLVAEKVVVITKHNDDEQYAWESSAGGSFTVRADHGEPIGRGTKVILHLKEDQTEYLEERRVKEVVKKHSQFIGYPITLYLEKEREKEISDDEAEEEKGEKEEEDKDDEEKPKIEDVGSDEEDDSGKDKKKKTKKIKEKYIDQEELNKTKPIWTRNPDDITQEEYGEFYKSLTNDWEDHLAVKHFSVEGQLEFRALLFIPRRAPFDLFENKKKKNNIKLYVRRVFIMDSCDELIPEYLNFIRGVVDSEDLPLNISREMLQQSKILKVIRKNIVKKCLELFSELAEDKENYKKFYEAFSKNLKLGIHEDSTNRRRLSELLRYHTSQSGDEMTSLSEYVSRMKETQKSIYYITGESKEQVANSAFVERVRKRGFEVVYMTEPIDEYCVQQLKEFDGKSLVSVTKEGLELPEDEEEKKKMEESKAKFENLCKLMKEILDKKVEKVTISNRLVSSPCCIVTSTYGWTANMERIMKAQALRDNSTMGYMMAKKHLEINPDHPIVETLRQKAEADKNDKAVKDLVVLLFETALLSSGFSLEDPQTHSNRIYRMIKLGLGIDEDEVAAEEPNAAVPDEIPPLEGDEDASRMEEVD

stoichiometry N [1]: 1
Molecule: Sgt1 (of the ITC in Supplementary Figure 1) (natural protein)

Kd (human Skp1 (human)): 1640 nM
binding result (His6-tagged human Hsp90β): binds
B1: human Sgt1, wild type (natural protein, UniProt Q9Y2Z0-2 1-333, looked up)
chain: MAAAAAGTATSQRFFQSFSDALIDEDPQAALEELTKALEQKPDDAQYYCQRAYCHILLGNYCVAVADAKKSLELNPNNSTAMLRKGICEYHEKNYAAALETFTEGQKLDSADANFSVWIKRCQEAQNGSESEVWTHQSKIKYDWYQTESQVVITLMIKNVQKNDVNVEFSEKELSALVKLPSGEDYNLKLELLHPIIPEQSTFKVLSTKIEIKLKKPEAVRWEKLEGQGDVPTPKQFVADVKNLYPSSSPYTRNWDKLVGEIKEEEKNEKLEGDAALNRLFQQIYSDGSDEVKRAMNKSFMESGGTVLSTNWSDVGKRKVEINPPDDMEWKKY
